Measurements from patent US6410239B1, “Identification and comparison of protein—protein interactions that occur in populations and identification of inhibitors of these interactors” (CuraGen Corporation, priority 1996, dated 2002).

Legend:
[1] = target: T1, YULH(R4-GBD) and N106′ (FKBP-12-GAD) interacting hybrid proteins (Homo sapiens, UniProt P62942); assay: 5-FOA assay identifying cells containing a non-genetically-encoded inhibitor of protein-protein interaction; type: cell-based, yeast
T1 construct: These primers flank the entire coding region of the FKBP-12 protein; expressed in transfected cells; host or cells: Saccharomyces cerevisiae YULH(R4-GBD) x N106'(FKBP-12-GAD)
Description: The above method described for the isolation of inhibitor peptides can also be used to screen and isolate inhibitors that are not genetically encoded. In other contexts, for example, a yeast-based transcription-inhibition assay has been used to screen for inhibitors of the HIV-1 proteinase (Murray et al., 1993, Gene 134:123-128). The reporter strains YULH(R4-GBD) and N106′ (FKBP-12-GAD), that harbor the reporter gene-systems and the two interacting proteins are grown in a 96-well format with each well containing 200 μl of media that selects for both the GBD and GAD plasmids (SC-LEU-TRP).
After a growth period (24-36 hours) that is sufficient for early log-phase growth (a cell density of 1×10^7 cells/ml), the cells are exposed to an RNA inhibitor at a concentration of 100 nM for 1-2 hours. This RNA inhibitor is of the sequence 5′-[…]-3′ (SEQ ID NO:35). The pyrimidines in this RNA are modified with 2′-amino-2-deoxypyrimidines that causes the RNA to be resistant to nucleases. This RNA binds with high affinity to VEGF (Green et al., 1995, Current Biol. 2:683-695). […]
In the absence of the RNA inhibitor, cells are not able to grow in 5-FOA. […] The activity of the lacZ gene is determined by assaying the β-galactosidase activity of the cells as mentioned in Section 6.1.11. […]

VEGF = target: T2, VEGF (Homo sapiens, UniProt P15692); conditions: cited from earlier work
T2 sequence (P15692 207-395): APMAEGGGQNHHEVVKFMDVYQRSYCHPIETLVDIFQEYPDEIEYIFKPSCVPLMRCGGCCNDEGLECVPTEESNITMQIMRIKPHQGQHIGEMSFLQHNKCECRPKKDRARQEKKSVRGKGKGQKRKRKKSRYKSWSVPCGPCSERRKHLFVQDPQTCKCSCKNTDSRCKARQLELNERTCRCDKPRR

[2] = target: T3, interaction between the RAF-GAD and RAS-GBD proteins (Homo sapiens, UniProt P04049); assay: Peptide expressed from pPEV1 tested for inhibition of the RAS-RAF interaction in yeast mating two-hybrid assay; type: cell-based
T3 construct: expressed in transfected cells; host or cells: Saccharomyces cerevisiae diploids of YULH-RAFINT (RAF-GAD integrated at MER2) x N106' (RAS-GBD plasmid)
Source text: These oligonucleotides also introduced unique restriction sites (EagI and SphI) that facilitate the cloning of the amplified DNA fragments into the integration vector R1400. The R1400 plasmid vector consists of two yeast genes LYS2 (Fleig et al., 1986, Gene 46:237-245) and MER2 (Engebrecht et al., 1991, Cell 66:1257-1268). The LYS2 marker is used for the selection of integration events, while, the MER2 gene is used for integration of the entire plasmid into the yeast genome. MER2 is a gene that is not essential for the vegetative growth of yeast. The RAF-GAD gene was cloned into the R1400 plasmid to yield RAF-INT. This plasmid was then digested with the restriction enzyme PstI that has a site in the MER2 gene. The restriction was done in a partial manner as there are other PstI sites in the plasmid vector. The restriction digestion was allowed to proceed only for 1 minute and then the enzyme was inactivated by extracting with phenol-chloroform and the DNA was then precipitated. This linearized DNA was used to transform the YULH strain to yield YULH-RAFINT. Integration occurs at the MER2 locus, and the integration events were selected by growing the transformants on media lacking lysine. The N106′ strain was transformed with the RAS-GBD plasmid to form N106′ (RAS-GBD). The proper functioning of the RAF-GAD fusion was confirmed by mating YULH-RAFINT and N106′ (RAS-GBD) and observing the resultant activation of the URA3 and the lacZ Reporter Genes.
The PEVs serve to express and localize peptides (or proteins) in the nucleus of the yeast cell where their potential to inhibit specific protein-protein interactions is tested. This inhibitory activity of the peptides is monitored by their ability to inhibit the activity of the reporter genes like URA3, HIS3 and lacZ.
The PEVs comprise the following operably linked components (FIG. 7): an ADC1 promoter (ADC1-P) for supporting transcription in yeast (Ammerer, 1983, Meth. Enymol. 101:192-201); a nucleotide sequence encoding an SV40 Nuclear Localization Signal (NLS) for transporting the peptide to the nucleus (Dingwal and Laskey, 1991, Trends. Biochem. Sci. 16:478); followed by a stop codon (UAG) for terminating translation; means for inserting a DNA sequence encoding a candidate inhibitor peptide into the PEV in such a manner that the candidate inhibitor peptide is capable of being expressed as part of a fusion protein containing the NLS; and an ADC1 transcription termination signal. The NLS from SV40 large T comprises a 7 amino acid stretch (PKKKRKV) (SEQ ID NO:20) that has been successfully used in targeting proteins into the yeast nucleus (Benton et al., 1990, Mol. Cell. Biol. 10:353-360). […]

T1 sequence (P62942 whole entry): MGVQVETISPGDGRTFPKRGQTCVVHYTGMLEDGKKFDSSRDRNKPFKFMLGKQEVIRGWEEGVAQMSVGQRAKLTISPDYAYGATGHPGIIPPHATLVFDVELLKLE

Substance	growth in SC-TRP-LEU in the absence of 5-FOA, in the presence of the inhibitor ([1]; RNA inhibitor at 100 nM)	growth in media containing 5-FOA and uracil ([1]; RNA inhibitor at 100 nanomolar, without inhibitor cells are not able to grow in 5-FOA)	binding affinity to VEGF (VEGF)	β-galactosidase activity (lacZ reporter) of diploids ([2]; YULH2RAS (pPEVRAS-E) mated to N106′(RAS-GBD), control diploids are LACZ+)	growth of diploids on media lacking uracil (URA3 reporter) ([2]; YULH2RAS (pPEVRAS-E) mated to N106′(RAS-GBD), control diploids are URA+)	growth of diploids on medium containing 5-FOA ([2]; YULH2RAS (pPEVRAS-E) mated to N106′(RAS-GBD), control diploids unable to grow)	inhibition of the protein-protein interaction ([2]; peptide expressed in the yeast nucleus from pPEV1)
5′-CCCUGAUGGUAGACCGGGGUG-3′ (chemistry not fully specified) [RNA inhibitor]	able to grow	Growth is evident	high affinity				
RAS effector peptide: RAS amino acids 17-40, from a region important for interaction with RAF, expressed from pPEVRAS-E (SALTIQLIQNHFVDEYDPTIEDSY; UniProt P01112 17-40, looked up, fragment)				negative for β-galactosidase activity	unable to grow on media lacking uracil	grow on medium containing 5-FOA	inhibits the interaction
